{"source": "patent US7387779B2", "about": "“Anti-angiogenic proteins and fragments and methods of use thereof” (Beth Israel Deaconess Medical Center, priority 1998, dated 2008)", "molecules": {"B1": {"name": "endostatin: tumor associated angiogenesis inhibitor used as comparator (protein, UniProt P39060 1572-1754, looked up)", "Endostatin": "HSHRDFQPVLHLVALNSPLSGGMRGIRGADFQCFQQARAVGLAGTFRAFLSSRLQDLYSIVRRADRAAVPIVNLKDELLFPSWEALFSGSEGPLKPGARIFSFDGKDVLRHPTWPQKSVWHGSDPNGRRLTESYCETWRTEAPSATGQASSLLGGRLLGQSAASCHHAYIVLCIENSFMTASK", "modifications": "Endostatin"}, "B2": {"name": "Tumstatin-44-131: residues 44 to 131 of full-length Tumstatin (SEQ ID NO:33) (protein)", "chain": "FSFLFVQGNQRAHGQDLGTLGSCLQRFTTMPFLFCNVNDVCNFASRNDYSYWLSTPALMPMNMAPITGRALEPYISRCTVCEGPAIAI", "modifications": "Tumstatin-45-132 (amino acids 45-132 of SEQ ID NO10)"}, "B3": {"name": "Canstatin: NC1 domain of the α2 chain of Type IV collagen (SEQ ID NO:6) (protein, listed as Homo sapiens)", "chain": "VSIGYLLVKHSQTDQEPMCPVGMNKLWSGYSLLYFEGQEKAHNQDLGLAGSCLARFSTMPFLYCNPGDVCYYASRNDKSYWLSTTAPLPMMPVAEDEIKPYISRCSVCEAPAIAIAVHSQDVSIPHCPAGWRSLWIGYSFLMHTAAGDEGGGQSLVSPGSCLEDFRATPFIECNGGRGTCHYYANKYSFWLTTIPEQSFQGSPSADTLKAGLIRTHISRCQVCMKNL"}}, "key": {"HUVECs [1]": {"tested_on": "HUVECs", "test": "Total protein synthesis, 35S-methionine incorporation", "assay_type": "cell-based, human", "settings": "4.5 μM; 24 hours of serum stimulation; rapamycin 100 ng/ml", "method": "Primary human renal epithelial cells (HRE) were purchased from Clonetics (San Diego, Calif., USA) and were maintained in REGM (Clonetics Corp.). Other cell lines were obtained and maintained as described above. Cells were serum-starved for 24 hrs (0.5% FCS), stimulated with 10% FCS in the presence of T3 peptide, Tumstatin-44-131, endostatin or rapamycin for 12-24 hours. After pre-incubation of cells in methionine-free media for 1 hour, cells were labeled with ^35S-methionine for 1 hour and incorporation of radioactivity into trichloracetic acid precipitates was analyzed (Sudhakar, A. et al., 2000, Biochem. 39:12929-38; Maeshima, Y. et al., 1996, J. Amer. Soc. Nephrol. 7:2219-29). ANOVA with a one-tailed Student's t test was used to identify significant differences in multiple comparisons in the present study. A level of P<0.05 was considered statistically significant."}, "DU-145 cells": {"tested_on": "DU-145 cells", "test": "MTT cell viability assay", "assay_type": "cell-based", "settings": "0-50 μg/ml", "method": "Cell viability was measured by MTT assay, as described above.\nThe effects of Tumstatin-44-131 and Tum-5-125-C-A on cell viability of C-PAE cells were not seen in control PC-3 and DU-145 cells, as shown in FIGS. 52C and 52D. […] The activity of Tumstatin-44-131 is therefore specific to endothelial cells."}, "[2]": {"tested_on": "CD31-positive tumor vasculature", "test": "CD31 immunohistochemistry of xenograft tumors", "settings": "mouse, in vivo", "method": "Mice from the tumor studies were sacrificed after 10-20 days of treatment. Tumours were excised and fixed in 4% paraformaldehyde. Tissues were paraffin embedded and 3 μm sections were cut and mounted on glass slides. Sections were deparaffinized, rehydrated and treated with […] protease XXIV (SIGMA Chemical Co., St. Louis, Mo., USA) at 37° C. for 5 minutes. Digestion was stopped with 100% ethanol and sections were air dried and blocked with 10% rabbit serum. […]\nCD31 immunostaining was used to determine the intra-tumoral microvessel density (MVD) in frozen histological sections of the PC-3 tumor xenografts, using a rat anti-mouse […] monoclonal antibody (PharMingen, San Diego, Calif., USA) with a standard streptavidin-biotin-peroxidase detection system (Vectastain ABC Elite Kit, Vector Labs, Burlingame, Calif., USA). […] MVD was assessed by scanning the tumor at low power magnification, then identifying three areas at the tumor periphery which contained the maximum number of discrete microvessels, and then counting individual microvessels on a 40× field. The mean microvessel density was compared among treatment groups and analyzed using the Student's t-test."}, "HUVECs [3]": {"tested_on": "HUVECs", "test": "Endothelial cell migration, Boyden chamber", "assay_type": "cell-based, human", "method": "In the process of angiogenesis, endothelial cells not only proliferate but also migrate. Therefore, the effect of Canstatin on endothelial cell migration was assessed. The inhibitory effect of Canstatin and endostatin on FBS-induced chemotaxis was tested on human umbilical endothelial cells (HUVECs) using the Boyden chamber assay (Neuro-Probe, Inc., Cabin John, Md., USA). HUVECs cells were grown in M199 (Life Technologies/Gibco BRL, Gaithersburg, Md., USA) containing 10% FBS and 5 ng/ml DiC 18(3) living fluorescent stain (Molecular Probes, Inc., Eugene, Oreg., USA) overnight. After trypsinizing, washing and diluting cells in M199 containing 0.5% FBS, 60,000 cells were seeded in the upper chamber wells, together with or without Canstatin ([…]). M199 medium containing 2% FBS was placed in the lower chamber as a chemotactant. The cell-containing compartments were separated from the chemotactant with polycarbonate filters (Poretics Corp., Livermore, Calif., USA) of 8 μm pore size. […] Using a fluorescent high power field, several independent homogenous images were recorded by a digital SenSys™ camera operated with Image Processing Software PMIS (Roper Scientific/Photometrics, Tucson, Ariz., USA). Cells were counted by employing the OPTIMIZE 6.0 software-program (Media Cybernetics, Rochester, N.Y.) (Klemke, R. L. et al., 1994, J. Cell. Biol. 127:859-66)."}}, "data": [{"molecule": "B1", "values": [{"measurement": "inhibition of protein synthesis", "setting": "HUVECs [1]", "result": "did not inhibit protein synthesis"}]}, {"molecule": "B2", "values": [{"measurement": "effect on viability of DU-145 cells", "setting": "DU-145 cells", "result": "not seen"}]}, {"molecule": "B3", "values": [{"measurement": "CD31 staining of tumor vasculature, treated vs control", "setting": "[2]", "result": "decrease in CD31-positive vasculature"}, {"measurement": "concentration with significant effect on migration", "setting": "HUVECs [3]", "result": 10, "unit": "ng/mL"}]}]}
